From paper PMC5809584, “Plastic roles of phenylalanine and tyrosine residues of TLS/FUS in complex formation with the G-quadruplexes of telomeric DNA and TERRA”

Biological target: RGG3 of TLS/FUS (UniProt P35637 454-526)
Experiment: NMR CSP; equivalent amount, 50 mM KCl; NMR: 20 mM K-phosphate pH 6.2, 50 mM KCl, 1 mM DTT, 0.1 mM DSS, 5% D2O, 298 K; FA: 20 C (nucleic acids annealed in 20 mM K-phosphate pH 6.2, 50 mM KCl); EMSA: 50 mM Tris-HCl pH 7.5, 100 mM KCl, 0.5 mM EDTA, 0.5 mM DTT, 0.2 mg/mL BSA, 1 ug/mL calf thymus DNA, 20 C
Settings: protein: recombinant; tags: GST removed with PreScission; residual GST-vector residues at N-terminus; G4, heterogeneous

Chain of RGG3 of TLS/FUS (P35637 454-526): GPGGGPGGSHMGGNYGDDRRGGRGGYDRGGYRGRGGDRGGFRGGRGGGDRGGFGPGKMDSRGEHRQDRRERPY

B1: TERRA24 (structured_RNA)
RNA: UUAGGGUUAGGGUUAGGGUUAGGG
binding result: binds
